The text below walks through data of PMC4838878 (2016).

First the molecules themselves.
B1: rat Unc5D ectodomain (Unc5D^ecto), biotinylated at a C-terminal Avitag (domain or fragment)
chain: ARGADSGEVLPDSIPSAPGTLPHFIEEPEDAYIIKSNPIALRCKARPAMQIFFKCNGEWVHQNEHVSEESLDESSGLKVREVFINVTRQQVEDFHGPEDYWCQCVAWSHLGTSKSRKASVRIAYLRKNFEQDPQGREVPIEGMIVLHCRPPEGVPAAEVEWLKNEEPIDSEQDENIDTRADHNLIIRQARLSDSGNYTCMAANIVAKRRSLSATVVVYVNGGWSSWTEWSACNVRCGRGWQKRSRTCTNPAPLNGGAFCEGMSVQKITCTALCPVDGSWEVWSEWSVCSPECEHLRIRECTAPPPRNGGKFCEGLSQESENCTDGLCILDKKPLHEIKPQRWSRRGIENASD
modifications: biotin on the C-terminal Avitag (enzymatic)

Assay [1] addresses FLRT2^LRR+Lphn3^Lec–Olf DDD mutant (mouse, UniProt Q8BLU0 35-362; Q80TS3-3 92-463, D397N | D399T, artificial N-linked glycan at position 397). The assay can be described thus: SPR; apparent KD; FLRT2LRR mixed with Lphn3Lec-Olf DDD mutant. (In general: SPR reads the build-up and loss of mass on a sensor chip optically.)
Assay [2] addresses B1. In words: SPR; apparent KD; FLRT2LRR mixed with Lphn3Lec-Olf.
Assay [3] has as its target T1, Unc5D ectodomain (Unc5D^ecto), ITC construct (human (methods; the results say rat), UniProt Q6UXZ4 32-383). In words: ITC. (ITC needs no label: the signal is the heat of the interaction.)
For assay [4], the target named is T2, Olf domain of mouse Latrophilin3 (Lphn3^Olf) (mouse, UniProt Q80TS3-3 199-495).
T2 chain: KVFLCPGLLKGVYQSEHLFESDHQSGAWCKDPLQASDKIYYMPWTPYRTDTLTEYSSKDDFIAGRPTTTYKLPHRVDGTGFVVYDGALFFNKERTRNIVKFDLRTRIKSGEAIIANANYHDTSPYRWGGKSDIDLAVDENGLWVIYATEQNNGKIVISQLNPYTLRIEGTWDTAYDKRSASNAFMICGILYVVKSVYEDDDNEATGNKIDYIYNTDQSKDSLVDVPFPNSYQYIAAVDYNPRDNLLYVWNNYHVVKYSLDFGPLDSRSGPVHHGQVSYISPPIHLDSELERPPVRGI
In words: ITC.

Assay [5] addresses T1, Unc5D ectodomain (Unc5D^ecto), ITC …. The assay can be described thus: ITC; FLRT2ecto premixed 1:1 with Lphn3Olf.

T1 sequence (Q6UXZ4 32-383): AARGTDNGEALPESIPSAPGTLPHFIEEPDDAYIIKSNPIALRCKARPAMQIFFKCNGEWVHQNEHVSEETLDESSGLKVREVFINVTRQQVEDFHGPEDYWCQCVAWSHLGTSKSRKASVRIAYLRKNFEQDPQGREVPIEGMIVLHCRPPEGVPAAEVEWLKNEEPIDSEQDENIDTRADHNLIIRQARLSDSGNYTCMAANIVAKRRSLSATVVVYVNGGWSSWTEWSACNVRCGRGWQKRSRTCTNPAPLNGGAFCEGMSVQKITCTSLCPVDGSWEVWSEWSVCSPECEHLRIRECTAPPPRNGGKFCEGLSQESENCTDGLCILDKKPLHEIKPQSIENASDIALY

On to B1, for which the Kd in assay [1] was roughly 9 nM.

B2: FLRT2^LRR+Lphn3^Lec–Olf (mixed in a 1:2 molar ratio) (complex)
chain 1: ACPSVCRCDRNFVYCNERSLTSVPLGIPEGVTVLYLHNNQINNAGFPAELHNVQSVHTVYLYGNQLDEFPMNLPKNVRVLHLQENNIQTISRAALAQLLKLEELHLDDNSISTVGVEDGAFREAISLKLLFLSKNHLSSVPVGLPVDLQELRVDENRIAVISDMAFQNLTSLERLIVDGNLLTNKGIAEGTFSHLTKLKEFSIVRNSLSHPPPDLPGTHLIRLYLQDNQINHIPLTAFANLRKLERLDISNNQLRMLTQGVFDHLSNLKQLTARNNPWFCDCSIKWVTEWLKYIPSSLNVRGFMCQGPEQVRGMAVRELNMNLLSCPT
chain 2: PIPMAVVRRELSCESYPIELRCPGTDVIMIESANYGRTDDKICDSDPAQMENIRCYLPDAYKIMSQRCNNRTQCAVVAGPDVFPDPCPGTYKYLEVQYECVPYKVEQKVFLCPGLLKGVYQSEHLFESDHQSGAWCKDPLQASDKIYYMPWTPYRTDTLTEYSSKDDFIAGRPTTTYKLPHRVDGTGFVVYDGALFFNKERTRNIVKFDLRTRIKSGEAIIANANYHDTSPYRWGGKSDIDLAVDENGLWVIYATEQNNGKIVISQLNPYTLRIEGTWDTAYDKRSASNAFMICGILYVVKSVYEDDDNEATGNKIDYIYNTDQSKDSLVDVPFPNSYQYIAAVDYNPRDNLLYVWNNYHVVKYSLDFGPLD
On to B2, for which, in assay [2], the Kd was roughly 9 nM.

B3: mouse FLRT2 ectodomain (FLRT2^ecto), ITC construct (domain or fragment)
chain: CPSVCRCDRNFVYCNERSLTSVPLGIPEGVTVLYLHNNQINNAGFPAELHNVQSVHTVYLYGNQLDEFPMNLPKNVRVLHLQENNIQTISRAALAQLLKLEELHLDDNSISTVGVEDGAFREAISLKLLFLSKNHLSSVPVGLPVDLQELRVDENRIAVISDMAFQNLTSLERLIVDGNLLTNKGIAEGTFSHLTKLKEFSIVRNSLSHPPPDLPGTHLIRLYLQDNQINHIPLTAFANLRKLERLDISNNQLRMLTQGVFDHLSNLKQLTARNNPWFCDCSIKWVTEWLKYIPSSLNVRGFMCQGPEQVRGMAVRELNMNLLSCPTTTPGLPVFTPAPSTVSPTTQSPTLSVPSPSRGSVPPAPTPSKLPTIPDWDGRERVTPPISERIQLSIHFVNDTSIQVSWLSLFTVMAYKLTWVKMGHSLVGGIVQERIVSGEKQHLSLVNLEPRSTYRICLVPLDAFNYRTVEDTICSEATTHASYLNNGSNTASSHEQTTSHSMGSPF
As to B3, the values for the Kd in assay [3] and in assay [4] were 2300 nM and 9.7 nM, respectively.

B4: FLRT2^ecto+Lphn3^Olf (kept together in the ITC cell) (complex)
chain 1: CPSVCRCDRNFVYCNERSLTSVPLGIPEGVTVLYLHNNQINNAGFPAELHNVQSVHTVYLYGNQLDEFPMNLPKNVRVLHLQENNIQTISRAALAQLLKLEELHLDDNSISTVGVEDGAFREAISLKLLFLSKNHLSSVPVGLPVDLQELRVDENRIAVISDMAFQNLTSLERLIVDGNLLTNKGIAEGTFSHLTKLKEFSIVRNSLSHPPPDLPGTHLIRLYLQDNQINHIPLTAFANLRKLERLDISNNQLRMLTQGVFDHLSNLKQLTARNNPWFCDCSIKWVTEWLKYIPSSLNVRGFMCQGPEQVRGMAVRELNMNLLSCPTTTPGLPVFTPAPSTVSPTTQSPTLSVPSPSRGSVPPAPTPSKLPTIPDWDGRERVTPPISERIQLSIHFVNDTSIQVSWLSLFTVMAYKLTWVKMGHSLVGGIVQERIVSGEKQHLSLVNLEPRSTYRICLVPLDAFNYRTVEDTICSEATTHASYLNNGSNTASSHEQTTSHSMGSPF
chain 2: KVFLCPGLLKGVYQSEHLFESDHQSGAWCKDPLQASDKIYYMPWTPYRTDTLTEYSSKDDFIAGRPTTTYKLPHRVDGTGFVVYDGALFFNKERTRNIVKFDLRTRIKSGEAIIANANYHDTSPYRWGGKSDIDLAVDENGLWVIYATEQNNGKIVISQLNPYTLRIEGTWDTAYDKRSASNAFMICGILYVVKSVYEDDDNEATGNKIDYIYNTDQSKDSLVDVPFPNSYQYIAAVDYNPRDNLLYVWNNYHVVKYSLDFGPLDSRSGPVHHGQVSYISPPIHLDSELERPPVRGI
In turn, B4 came in with a Kd in assay [5] of 106 nM.
